Measurements: article PMC7338556, “A Truncated Form of HpARI Stabilizes IL-33, Amplifying Responses to the Cytokine” (Frontiers in Immunology, 2020)

B1: HpARI_CCP1/2 (HpARI truncation lacking CCP3) (domain or fragment)
chain: AGQRCRFTDVERDKGYTGMLLKGRLRKTAGNGRTVELICGRGNHNYTCESGVLKESSPRQARCGCKGILEMLFDMPKEERPSPMYDSVTYDPTPNTPTTVGKDGIWNGVDYRNGSTVKPYCDTGPVINGSSKAVCVSGKWVPTLGVCPK
B2: recombinant murine IL-33 (ligand)
chain: SIQGTSLLTQSPASLSTYNDQSVSFVLENGCYVINVDDSGKDQEQDQVLLRYYESPCPASQSGDGVDGKKLMVNMSPIKDTDIWLHANDKDYSVELQRGDVSPPEQAFFVLHKKSSDFVSFECKNLPGTYIGVKDNQLALVEEKDESCNNIMFKLSKI
modifications: Reduced (active) form with free cysteines. Limits are not given; the usual commercial (BioLegend) mature mouse IL-33, Ser109-Ile266, is assumed, matching the candidate chain 109-266
B3: HpARI_CCP2/3 (HpARI truncation lacking CCP1) (domain or fragment)
chain: TYDPTPNTPTTVGKDGIWNGVDYRNGSTVKPYCDTGPVINGSSKAVCVSGKWVPTLGVCPKMCSIGSLKENGKFVDVTATTKGDELNPPPREQTLIPIVRKVDKDKVQHGVKVVALCKAEDSTTAAEGVQEFECDNGKWKPEPVPCP

Key:
recombinant murine IL-33 = target: B2; test: SPR; HpARI, HpARI_CCP1/2 or HpARI_CCP2/3 captured via the hexa-His tag and covalently stabilised on an NTA chip (400 RU); mIL-33 2.47-200 nM injected, single-cycle kinetics, 25 °C; 10 mM NaH2PO4 pH 7.5, 150 mM NaCl, 50 μM EDTA, 0.05% P20; global fit of a 1:1 model with mass transport; settings: both partners purified
[1] = target: T1, H. polygyrus Alarmin Release Inhibitor (HpARI), full-length (Heligmosomoides polygyrus); test: as above; settings: both partners purified
T1 construct: It was cloned into the secretion vector pSecTAG2A, so the native signal peptide may be missing and a vector leader used (surmise); also called full-length HpARI; source: Expi293F cells, transfected (pSecTAG2A), purified from supernatant (HisTrap excel, HiTRAP chelating HP Ni column); not shown: His6, C-terminal, kept

Binder	Kd (recombinant murine IL-33)	koff (recombinant murine IL-33)	Kd [1]	koff [1]
B1	9.8 nM	0.003 s⁻¹	–	–
B2	–	–	1.1 nM	0.00015 s⁻¹
B3	1.4 nM	–	–	–
